Source: patent US11760795B2, “Monoclonal antibodies to growth and differentiation factor 15 (GDF-15), and uses thereof for treating cancer cachexia and cancer” (JULIUS-MAXIMILIANS-UNIVERSITÄT WÜRZBURG, priority 2014, dated 2023)

Experiments:
[1] = system: prostate cancer cell line LnCap; assay: Cancer cell proliferation, Alamar Blue metabolic assay; type: cell-based; settings: after 72 hrs, compared with control group without antibody
Excerpt: The strongest antiproliferative effect was observed using the prostate cancer cell line LnCap, which produces lots of GDF-15.

[2] = system: GDF-15 mediated downregulation of NKG2D on NK cells; assay: NKG2D surface expression on NK cells after GDF-15 treatment (flow cytometry); type: cell-based; settings: 72 hours incubation
Method: FIG. 1: NKG2D Expression on NK Cells after Treatment with or without GDF-15. The cell surface expression of NKG2D was determined on NK cells after treatment with the indicated cytokines in the presence or absence of the anti-GDF-15 antibody mAb B1-23.
a) The NKG2D (Natural Killer Group 2D) receptor, which is expressed on NK cells and CD8+ T cells, is known to play an important role in the immune surveillance against tumors. Transformed as well as viral infected cells express ligands, which bind to the NKG2D receptor, thereby activating the cytotoxic effector functions of the described immune cells. In that way transformed cells can be detected and eliminated by the immune system.
After 72 hours incubation the immune cells were stained with the following FACS-antibodies: anti CD3, anti CD56, anti-NKG2D. Using this antibody combination, the experiment focused on NK cells and their NKG2D surface expression. The low NKG2D level on immune cells led to an impaired tumor/target cell lysis. The GDF-15 mediated downregulation of NKG2D was prevented by mAb B1-23.

[3] = target: T1, recombinant human GDF-15 (Homo sapiens, UniProt Q99988); assay: Mass spectrometric epitope excision; type: binding; settings: trypsin 2 h at 37° C., MS/MS identification
T1 sequence (Q99988 with tags, fused parts or gaps): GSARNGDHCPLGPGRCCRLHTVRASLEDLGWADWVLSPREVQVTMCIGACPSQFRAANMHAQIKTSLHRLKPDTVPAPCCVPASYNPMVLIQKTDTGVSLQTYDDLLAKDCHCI
Method: The epitope of recombinant human GDF-15 which binds to the antibody B1-23 was identified by means of the epitope excision method and epitope extraction method (Suckau et al. Proc Nati Acad Sci USA. 1990 December; 87(24): 9848-9852; R. Stefanescu et al., Eur. J. Mass Spectrom. 13, 69-75 (2007)).
For preparation of the antibody column, the antibody B1-23 was added to NHS-activated 6-aminohexanoic acid coupled sepharose. The sepharose-coupled antibody B1-23 was then loaded into a 0.8 ml microcolumn and washed with blocking and washing buffers.
The immobilized antibody B1-23 on the affinity column was then incubated with recombinant GDF-15 for 2 h. The formed immune complex on the affinity column was then incubated with trypsin for 2 h at 37° C. […] The immobilized antibody itself is proteolytically stable. The resulting peptides of the digested GDF-15 protein, which were shielded by the antibody and thus protected from proteolytic cleavage, were eluted under acidic conditions (TFA, pH2), collected and identified by mass spectrometry.

[4] = target: T2, hrGDF-15 (Homo sapiens, UniProt Q99988); assay: Colorimetric ELISA binding to coated hrGDF-15; settings: serial 1:3 dilution from 333 ng/ml; in comparison to B12
T2 sequence (Q99988 with tags, fused parts or gaps limits assumed): T1 sequence (Q99988 with tags, fused parts or gaps)
Method: Additionally, by using a colorimetric assay, it was confirmed that all anti-GDF-15 antibodies used in the study bound to GDF-15 in a concentration-dependent manner. To determine the binding of B1-23 antibody variants to GDF-15, a […] ELISA experiment was performed. […] Therefore, Maxisorp 96 well plates (Nunc) were coated with hrGDF-15 (25 ng protein per well, 50 μl volume) over night at 4° C. The following day, plates were washed to remove unbound protein (3 times with 150 μl of PBS 0.05% Tween®) and non-specific binding sites were blocked with 150 μl of PBS 1% BSA for 2 hours at room temperature. Again, plates were washed and different variants of B1-23 test antibodies were applied (50 μl volume). To inquire specificity of the antibody binding, endpoint dilution was performed starting from 333 ng/ml and 1:3 serial dilution. As background control, PBS 1% BSA was applied. Following binding for 1 hour at room temperature, wells were washed as described above. As secondary antibody HRP conjugated Anti-human IgG (Life technologies, 1:5000) was applied for 1 hour at room temperature. Wells were washed as described above to remove unbound secondary antibody. […] For analysis, optical density at 450 nm was quantified using the ELISA reader (Tecan Sunrise) and the corresponding Magellan software.

[5] = system: GDF-15 mediated AKT-phosphorylation in ovarian cancer cell line SK-OV-3; assay: Akt phosphorylation in SK-OV-3 cells (Western Blot); type: cell-based; settings: 2 μg antibody preincubated 5 minutes with 10 ng/ml GDF-15 at 37° C.
Method: FIG. 2: Akt Phosphorylation in the Ovarian Carcinoma Cell Line SK-OV-3. In order to quantify the Western Blot for the ovarian carcinoma cell line SK-OV-3, the ratio of phosphorylated Akt to the total amount of Akt was calculated and normalized to the untreated control.
b) The treatment of the ovarian cancer cell line SK-OV-3 with recombinant GDF-15 led to the phosphorylation of AKT. AKT is a molecule, which is part of the PI3K-pathway and contributes to the activation and proliferation of cells. In this experiment SK-OV-3 cells were treated with 10 ng/ml recombinant GDF-15 for 10 min at 37° C., 5% CO2. 5 minutes preincubation of 2 μg mAb-B1-23 with 10 ng/ml GDF-15 at 37° C. blocked the GDF-15 mediated AKT-phosphorylation (FIG. 2).

[6] = system: 13 mer linear peptides derived from GDF-15; assay: Epitope mapping on peptide array of 13 mer linear peptides derived from GDF-15; type: binding, human; settings: antibody dilution 1:100, overnight at 4° C.
Method: Epitope Mapping: Monoclonal mouse antibody GDF-15 against 13 mer linear peptides derived from GDF-15
The protein sequence was translated into 13 mer peptides with a shift of one amino acid. The C- and N-termini were elongated by a neutral GSGS linker to avoid truncated peptides (bold letters).
Primary sample: Monoclonal mouse antibody GDF-15 (1 μg/μl):
Staining in incubation buffer for 16 h at 4° C. at a dilution of 1:100 and slight shaking at 500 rpm
Secondary antibody: Goat anti-mouse IgG (H+L) IRDye680, staining in incubation buffer with a dilution of 1:5000 for 30 min at room temperature (RT)
After pre-swelling for 10 min in standard buffer, the peptide microarray was incubated overnight at 4° C. with monoclonal mouse antibody GDF-15 at a dilution of 1:100. Repeated washing in standard buffer (2×1 min) was followed by incubation for 30 min with the secondary antibody at a dilution of 1:5000 at room temperature. After 2×10 sec. washing in standard buffer and short rinsing with dist. water, the PEPperCHIP® was dried in a stream of air. Read-out was done with Odyssey® Imaging System at a resolution of 21 μm and green/red intensities of 7/7 before and after staining of control peptides by anti-HA and anti-FLAG(M2) antibodies.

B1: mAb-B1-23: murine IgG2a (kappa) monoclonal anti-human GDF-15 antibody produced by hybridoma cell line B1-23, DSM ACC3142 (antibody, V domains shown)
VH: QVKLQQSGPGILQSSQTLSLTCSFSGFSLSTSGMGVSWIRQPSGKGLEWLAHIYWDDDKRYNPTLKSRLTISKDPSRNQVFLKITSVDTADTATYYCARSSYGAMDYWGQGTSVTVSS
VL: DIVLTQSPKFMSTSVGDRVSVTCKASQNVGTNVAWFLQKPGQSPKALIYSASYRYSGVPDRFTGSGSGTDFTLTISNVQSEDLAEYFCQQYNNFPYTFGGGTKLEIKRTVA
[1]
  decrease of proliferation: 30%
[2]
  GDF-15 mediated downregulation of NKG2D: prevented
[3]
  positions of GDF-15 peptides forming the immune complex (epitope): 40-55 ([…]) and 94-114 ([…])
[4]
  binding to GDF-15 in ELISA: clearly concentration-dependent binding
[5]
  GDF-15 mediated AKT-phosphorylation: blocked
[6]
  interaction with linear 13 mer peptides derived from GDF-15: none of the linear 13 mer peptides derived from GDF-15 interacted
